Test results published in paper PMC5084270 (The Journal of Cell Biology, 2016).

Target: FLAG-DDB1 (UniProt Q16531 1-1140)
Assay: pull-down

Sequence of FLAG-DDB1 (Q16531 whole entry): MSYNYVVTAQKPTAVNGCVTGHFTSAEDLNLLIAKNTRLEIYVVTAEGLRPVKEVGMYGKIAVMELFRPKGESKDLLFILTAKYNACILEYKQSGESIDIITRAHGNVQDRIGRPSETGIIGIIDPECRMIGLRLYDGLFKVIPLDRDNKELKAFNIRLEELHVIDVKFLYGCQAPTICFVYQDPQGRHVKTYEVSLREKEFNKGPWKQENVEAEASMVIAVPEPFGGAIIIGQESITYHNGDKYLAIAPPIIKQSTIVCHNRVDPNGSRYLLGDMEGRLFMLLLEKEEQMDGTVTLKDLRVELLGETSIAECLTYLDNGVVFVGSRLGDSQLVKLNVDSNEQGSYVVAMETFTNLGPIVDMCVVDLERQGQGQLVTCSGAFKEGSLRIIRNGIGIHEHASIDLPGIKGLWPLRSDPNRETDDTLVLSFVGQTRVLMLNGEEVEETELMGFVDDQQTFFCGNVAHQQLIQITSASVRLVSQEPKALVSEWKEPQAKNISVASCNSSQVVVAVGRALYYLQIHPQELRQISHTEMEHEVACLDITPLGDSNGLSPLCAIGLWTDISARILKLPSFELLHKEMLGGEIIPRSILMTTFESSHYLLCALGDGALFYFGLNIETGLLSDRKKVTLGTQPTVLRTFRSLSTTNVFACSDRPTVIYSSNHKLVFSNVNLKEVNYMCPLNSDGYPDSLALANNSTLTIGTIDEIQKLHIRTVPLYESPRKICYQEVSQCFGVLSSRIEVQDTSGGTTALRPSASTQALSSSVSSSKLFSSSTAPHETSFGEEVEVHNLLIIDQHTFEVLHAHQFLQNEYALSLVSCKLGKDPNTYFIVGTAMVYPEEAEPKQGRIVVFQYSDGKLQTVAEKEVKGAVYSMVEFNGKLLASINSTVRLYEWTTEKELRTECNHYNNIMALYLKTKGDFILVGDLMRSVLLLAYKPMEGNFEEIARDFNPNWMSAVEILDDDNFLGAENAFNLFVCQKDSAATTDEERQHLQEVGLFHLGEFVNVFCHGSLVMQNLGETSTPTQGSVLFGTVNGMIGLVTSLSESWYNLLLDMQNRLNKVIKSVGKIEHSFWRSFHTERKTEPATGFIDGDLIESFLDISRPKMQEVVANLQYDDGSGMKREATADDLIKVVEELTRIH

B1: GFP-DDB2 (natural protein)
chain: MAPKKRPETQKTSEIVLRPRNKRSRSPLELEPEAKKLCAKGSGPSRRCDSDCLWVGLAGPQILPPCRSIVRTLHQHKLGRASWPSVQQGLQQSFLHTLDSYRILQKAAPFDRRATSLAWHPTHPSTVAVGSKGGDIMLWNFGIKDKPTFIKGIGAGGSITGLKFNPLNTNQFYASSMEGTTRLQDFKGNILRVFASSDTINIWFCSLDVSASSRMVVTGDNVGNVILLNMDGKELWNLRMHKKKVTHVALNPCCDWFLATASVDQTVKIWDLRQVRGKASFLYSLPHRHPVNAACFSPDGARLLTTDQKSEIRVYSASQWDCPLGLIPHPHRHFQHLTPIKAAWHPRYNLIVVGRYPDPNFKSCTPYELRTIDVFDGNSGKMMCQLYDPESSGISSLNEFNPMGDTLASAMGYHILIWSQEEARTRK
Question: Does B1 bind?
Answer: Result: binds
